Each block holds one binder with its values, some of them ahead of it.
Biological target: T1, CMG (Cdc45-MCM-GINS) helicase (S. cerevisiae, UniProt Q08032 1-650; P29469 1-868; P24279 1-971; P30665 1-933; P29496 1-775; P53091 …)
T1 construct: Cdc45, S. cerevisiae; Mcm2, S. cerevisiae; Mcm3, S. cerevisiae; Mcm4, S. cerevisiae; Mcm5, S. cerevisiae; Mcm6, S. cerevisiae; Mcm7, S. cerevisiae; GINS subunit, S. cerevisiae; 11-subunit helicase; The two strains express the same chains; in yVA94 endogenous Ctf4-2xStrep was depleted on Strep-Tactin resin; also called Ctf4-depleted CMG; wild-type CMG; source: S. cerevisiae, overexpressed, …
Assay: cryo-EM structure; replisome reconstituted on ice on forked DNA with 0.5 mM AMP-PNP from 150 nM CMG (Ctf4-depleted), Pol ε^exo-, Ctf18-RFC, Tof1-Csm3, Ctf4 and Mrc1 in 25 mM HEPES-NaOH pH 7.6, 150 mM NaOAc, 15 mM Mg(OAc)2, 0.5 mM TCEP; 10-30% glycerol gradient with glutaraldehyde and BS3 cross-linking
Conditions: both partners purified

binding result: binds
B1: Ctf4 (natural protein, S. cerevisiae, UniProt Q01454 1-927, looked up)
chain: MVSVIDKLVFDFGGKTLVSLAPDNNTLCVANKNGLTKILKTNNPEEEPETLDSSKLVSSIKCYSNSHFLMTTMQGDALRYNIDSSQEELLARFALPLRDCCVIHSGKMAVFGGDDLELILLELDDETHKKHAIKIDEQVSQISYNSQMNILAVSMINGKVQIFSLTSTIPNKVHELNDYIVANSYDDTHRDKILSNMMDDIDKDNDNDLSETADPDENNVADPEFCAANRICTRVAWHPKGLHFALPCADDTVKIFSIKGYSLQKTLSTNLSSTKAHFIDLQFDPLRGTYIAAVDLNNKLTVWNWETSEIHYTREFKRKITNIAWKIQADSKTLDLVLGTWSGSIAIVQNLAESVVSNIPDQSVAESSTKHGLFVDSESDLENLEGNDDINKSDKLFSDITQEANAEDVFTQTHDGPSGLSEKRKYNFEDEEDFIDDDDGAGYISGKKPHNEHSYSRVHKTHSFPISLANTGKFRYMPFSPAGTPFGFTDRRYLTMNEVGYVSTVKNSEQYSITVSFFDVGRFREYHFEDLFGYDLCFLNEKGTLFGQSKTGQIQYRPHDSIHSNWTKIIPLQAGERITSVAATPVRVIVGTSLGYFRSFNQFGVPFAVEKTSPIVALTAQNYRVFSVHYSQFHGLSYSLSELGTSSKRYYKRECPLPMSLPNINSDMKKDANLDYYNFNPMGIKSLFFSSYGDPCIFGSDNTLLLLSKWRSPEESKWLPILDSNMEIWKMSGGKETTDIHVWPLALAYDTLNCILVKGKHIWPEFPLPLPSEMEIRMPVFVKSKLLEENKAILNKKNEIGADTEAEEGEEDKEIQIPVSMAAEEEYLRSKVLSELLTDTLENDGEMYGNENEVLAALNGAYDKALLRLFASACSDQNVEKALSLAHELKQDRALTAAVKISERAELPSLVKKINNIREARYEQQLK
notes: Ctf4, S. cerevisiae; source: purified as in Yeeles et al, 2015

binding result: binds
B2: Tof1-Csm3 (complex, S. cerevisiae)
chain 1: MSADLQQGTTNAADFSLTVLRARIALLATAIGGPDYTSQIDPPPYKLGDDCLACLKDLKRWFKLVDDQQKRWDVAMAVAEYRILTDDLLPILIDWENKCSLAAKLAKNNPDHEEFRNKAYYDKIALNCLQLLVLMTWPLIVTEQSSSNQITLYGELKKHQLVYKKTILSMESGKVLRAAIRLALDVIKIDRLSRTPRDNMVLKLVLNFFRNVIAIEPGEFTINTKKSMPKKGITSIDTLPPNVSMDDISLNTVISSFHKNKVFGFLLTLTSSLSKEFDQDFINIPLLEIMFYFTKDVNQELLFPRQFETGTHSKVVNKNESSSANNIVTSAGFELSKLLQKEHQMRKNVIKHTSARHSRFGGLLSIQTPDKTRLTVSGSQALVDEKIALQKLDDSKKWNKRIIKKHQSVAAEGLPNSLLNSQTGKAIFFTESNGKHFKEFINNFIDSGFNILLHSVTNYFTTEQDRMVTLEQVEYLLFFAWFVKYQLLRSKIDNSADIKQVSEALKEVTFILVSSLLRSAYDLKNWTVTHAGMIAFNELLNLVSRTKAAQEEDSTDIEFIVSRLFSDERIQLLSNLPKIGSKYSLQFMKSCIELTHSVLKVLEQYSDDKTLVIEGKSRRQKKFNISEGDITKLIEEENVDRDEALDILTSSLRSIEVNFQKVQANYMTEPVIETYINFLERFRELEDDSIKKVFSFFHRVFVQAKEQALLFRFDLIILLREMLSPDGLDRMSRSRKYVSQFSDYFLARLKKRLKKSPAWFVGLLFPPLHNSEVGFYQRYGEYNVLNNESMYAAPASQFKPIPDEEALPPSILLDMKYGVLVSTLLDDGKTELLDQLLKHITHTLDIFKSWLTVNVNAGKETVNPPNEYFTLTGVLNNDPIFKDKDYRALLLLIGYSIPRKINEPCFLPGTVEVSDLTVSCELVKKYLSTPFETPNGLPSSSYLLRVRSEKDSFSHNEQDGWEGDDDYDYNDPYIVPDDQILSKSDAAYFKDLDNNASDKLKGTKFSKGIARSKKKDKRKRRKGEAKTNLPMFGDQDDERPQTVRERHGVFSKEFISDSEDDEDLMNPIFFENETYMRWLLDKNNGQLTEDRYIQFAKFAAERMNNGGVVTGDYTSLFGGSIPSIESIRATESSSFAPDKSLISLASHVASEMSIFDVNNNNNNQLSDDDVNSESRNSLGSSQPSNSQNMFQSEVYSRKESTKRSLEASAADESDEDEEAIRLFGKKSRVVLSQGDSDD
chain 2: MDQDFDSLLLGFNDSDSVQKDPTVPNGLDGSVVDPTIADPTAITARKRRPQVKLTAEKLLSDKGLPYVLKNAHKRIRISSKKNSYDNLSNIIQFYQLWAHELFPKAKFKDFMKICQTVGKTDPVLREYRVSLFRDEMGMSFDVGTRETGQDLERQSPMVEEHVTSAEERPIVADSFAQDKRNVNNVDYDNDEDDDIYHLSYRNRRGRVLDERGNNETVLNNVVPPKEDLDALLKTFRVQGPVGLEENEKKLLLGWLDAHRKMEKGSMTEEDVQLIQSLEEWEMNDIEGQHTHYDLLPGGDEFGVDQDELDAMKEMGF
notes: Tof1, S. cerevisiae; Csm3, S. cerevisiae; source: purified as in Yeeles et al, 2017

Source: publication PMC12000384, “Competition for the nascent leading strand shapes the requirements for PCNA loading in the replisome” (The EMBO Journal, 2025)
